Assay results published in patent US20220298244A1 (BEIJING MABWORKS BIOTECH, published 2022).

B1: chimeric 3C2 antibody (antibody, human IgG1, kappa, N297A, V domains shown)
VH: QVQLNQSGPELMKAGTSVKISCKASGYSFTDYHVNWVKQRPGQGLEWIGWIFPGSGRTFYTDKFKGKATLTVDLSFTTAYIMLNSLTSEDSAVYFCATDYGTSGYGLVYWGQGTSVTVSS
VL: DIQMTQSSSYLSVSLGGRVTISCKASDRINNWLAWYQQKPGNAPRLLISGATSLETGVPSRFSGSGSGKDYTLSITSLQTEDVAVYYCQQYWNIPFTFGSGTKLEIKR
B2: chimeric 56E5 antibody (antibody, human IgG1, kappa, N297A, V domains shown)
VH: EVQLQESGPGLAKPSQTLSLTCSVTGYSITSDYWNWIRKFPGNKLEYMGYISYTGSTYYNPSLKSRISITRDTSKNQYYLQLNSVTTEDTATYYCARYRDWDVRAMDYWGQGTSVTVSS
VL: DIVMTQSPSSLTVTAGEKVTMNCKSSQSLLISGNQKNFLTWYQQKPGQPPKLLIYWASTRESGVPDRFTGSGSGTDFTLTISSVQAEDLAVYYCQNDFGFPFTFGSGTKLEIKR

Experiments:
monkey PD-L1 (ECD)-his = molecular target: T1, monkey PD-L1 (ECD)-his (monkey, UniProt Q9NZQ7 19-238 (human entry)); experiment: ELISA on coated monkey PD-L1 (ECD)-his
T1 construct: Bought protein; also called Cat #:90251-C08H, Sino Biological; not shown: His tag
Experimental: (§1) Species-cross-reactivities of the anti-PD-L1 mAbs to monkey or mouse PD-L1s were further assessed by direct ELISA. Briefly, 96-well ELISA plates were coated with 500 ng/ml monkey PD-L1 (ECD)-his (Cat #:90251-C08H, Sino Biological, CN) or mouse PD-L1(ECD)-his (Cat #:50010-M08H, Sino Biological, CN), 100 μl per well, then added and incubated with 100 μl serially diluted anti-PD-L1 antibodies (starting at 40 μg/ml). The plates were then added and incubated with Goat anti-human IgG conjugated with HRP (Cat #:31410, Thermal, US) for 1 hour at room temperature. Plates were developed with freshly prepared Ultra-TMB (Cat #:555214, BD, US) for 5 minutes at room temperature, and absorbance was read on a SpectraMax^R i3X reader (Molecular Devies, US) at 450 nm.

human PD-L1 (ECD)-his = molecular target: T2, human PD-L1 (ECD)-his (human, UniProt Q9NZQ7 19-238); experiment: ELISA on coated human PD-L1 (ECD)-his
T2 construct: Bought protein; it is not tied to the bought construct by a sentence of its own; also called recombinant human PD-L1(ECD)-his; Cat #:10084-H08H, Sino Biological; not shown: His tag
Experimental: The chimeric anti-PD-L1 antibodies were further characterized for their abilities of binding to human PD-L1, monkey PD-L1 and mouse PD-L1. Briefly, ELISA plates were coated with 500 ng/ml human PD-L1 (ECD)-his (Cat #:10084-H08H, Sino Biological, CN), 100 μl per well, at 4° C. overnight. The wells were blocked with 200 μl blocking buffer (PBS containing 1% BSA, 1% goat serum and 0.05% Tween 20) for 2 hours at room temperature, added and incubated with 100 μl serially diluted anti-PD-L1 antibodies (starting at 40 μg/ml) for 1 hour at room temperature. The plates were washed for 3 times with PBST (PBS+0.05% Tween 20), added with Goat-anti-human IgG-HRP (Cat #:31410, Thermal, US) diluted 5000×, and incubated for 1 hour at room temperature. Plates were developed with freshly prepared Ultra-TMB (Cat #:555214, BD, US) for 5 minutes at room temperature. Absorbance was read on a SpectraMax^R i3X reader (Molecular Devies, US) at 450 nm.

[1] = molecular target: T3, human PD-L1 expressed on HEK293A cells (human, UniProt Q9NZQ7 19-290); experiment: FACS blocking assay on HEK293A/human PD-L1 cells; blocked ligand PD1-hFc (protocol of Example 6)
T3 construct: Full-length cDNA expressed stably; also called HEK293A/human PD-L1 cells; HEK293A/human PD-L1
Experimental: Briefly, 10⁵ HEK293A/human PD-L1 cells in 100 μl culture medium were seeded onto each well of 96-well plates, to which added 50 μl serially diluted anti-PD-L1 antibodies. After incubated at 4° C. for 1 hour, the plates were washed 3 times with PBST. […] After incubation at 4° C. for 1 hour, the plates were washed with PBST for 3 times, and added with PE coupled Goat Anti-human IgG (Cat #:PAI-86078, Thermofisher, US) diluted 500×. After incubation at 4° C. for 1 hour, the plates were washed with PBST for 3 times and then cell fluorescence was monitored using a FACS machine (BD).

mouse PD-L1(ECD)-his = molecular target: T4, mouse PD-L1(ECD)-his (mouse, UniProt Q9EP73 19-239); experiment: direct ELISA on coated mouse PD-L1(ECD)-his
T4 construct: Bought protein; also called mouse PD-L1-his; Cat #:50010-M08H, Sino Biological; not shown: His tag
Experimental: as §1

[2] = molecular target: T5, monkey PD-L1 expressed on HEK293A cells (monkey (cynomolgus), UniProt Q9NZQ7 19-290 (human entry)); experiment: FACS on HEK293A/monkey PD-L1 cells, serially diluted antibody (protocol of Example 4)
T5 construct: Full-length cDNA expressed stably; also called HEK293A/monkey PD-L1 cells; HEK293A/monkey PD-L1
Experimental: (§2) To determine whether the anti-PD-L1 antibodies bound to human, monkey or mouse PD-L1s expressed on HEK293A cells, a cell-based binding assay was performed by FACS using the HEK293A cells stably overexpressing human, monkey and mouse PD-L1s respectively as generated in Example 1. Briefly, 10⁵ HEK293A cells in 100 μl culture medium were seeded onto each well of the 96-well plates, to which added 50 μl serially diluted anti-PD-L1 antibodies. After incubated at 4° C. for 1 hour, plates were washed 3 times with PBST. Then, APC coupled Goat Anti-Mouse IgG (Cat #:405308, BioLegend, US) diluted 500× was added to the plates. After incubation at 4° C. for 1 hour, the plates were washed with PBS for 3 times and then cell fluorescence was monitored using a FACS machine (BD).

[3] = molecular target: T3, human PD-L1 expressed on HEK293A cells; experiment: FACS on HEK293A/human PD-L1 cells, serially diluted antibody (protocol of Example 4)
Experimental: as §2

[4] = molecular target: T6, mouse PD-L1 expressed on HEK293A cells (mouse, UniProt Q9EP73 19-290); experiment: FACS on HEK293A/mouse PD-L1 cells, serially diluted antibody (protocol of Example 4)
T6 construct: Full-length cDNA expressed stably; also called HEK293A/mouse PD-L1 cells; HEK293A/mouse PD-L1
Experimental: as §2

T3 sequence (Q9NZQ7 19-290 limits assumed): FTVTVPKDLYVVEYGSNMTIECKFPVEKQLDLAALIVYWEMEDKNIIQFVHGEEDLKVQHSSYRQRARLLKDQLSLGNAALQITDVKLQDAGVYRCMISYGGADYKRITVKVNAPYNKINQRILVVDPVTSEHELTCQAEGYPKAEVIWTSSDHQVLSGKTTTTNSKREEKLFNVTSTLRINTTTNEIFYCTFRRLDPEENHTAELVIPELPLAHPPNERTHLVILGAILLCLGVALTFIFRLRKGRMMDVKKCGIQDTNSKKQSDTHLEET
T2 sequence (Q9NZQ7 19-238): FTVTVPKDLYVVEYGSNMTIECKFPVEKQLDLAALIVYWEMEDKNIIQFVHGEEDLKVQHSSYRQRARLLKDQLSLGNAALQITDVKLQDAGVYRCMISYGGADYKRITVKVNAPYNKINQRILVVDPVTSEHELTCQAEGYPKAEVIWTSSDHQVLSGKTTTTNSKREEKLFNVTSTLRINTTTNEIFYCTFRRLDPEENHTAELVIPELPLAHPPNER
T6 sequence (Q9EP73 19-290 limits assumed): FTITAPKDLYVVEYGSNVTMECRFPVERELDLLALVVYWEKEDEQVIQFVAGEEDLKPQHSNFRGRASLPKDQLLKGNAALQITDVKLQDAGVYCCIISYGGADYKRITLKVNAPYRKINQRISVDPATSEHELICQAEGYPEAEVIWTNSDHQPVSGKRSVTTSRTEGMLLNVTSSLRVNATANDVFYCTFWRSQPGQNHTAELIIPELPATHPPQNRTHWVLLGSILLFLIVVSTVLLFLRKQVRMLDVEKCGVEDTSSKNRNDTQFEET
T4 sequence (Q9EP73 19-239): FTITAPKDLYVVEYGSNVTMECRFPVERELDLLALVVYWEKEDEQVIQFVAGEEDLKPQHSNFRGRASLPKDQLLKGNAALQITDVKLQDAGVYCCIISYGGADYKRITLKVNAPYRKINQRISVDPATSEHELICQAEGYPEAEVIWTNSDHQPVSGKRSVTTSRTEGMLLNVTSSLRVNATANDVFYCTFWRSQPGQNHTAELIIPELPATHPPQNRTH
T5 sequence (Q9NZQ7 other isoform, or with tags, fused parts or gaps limits assumed): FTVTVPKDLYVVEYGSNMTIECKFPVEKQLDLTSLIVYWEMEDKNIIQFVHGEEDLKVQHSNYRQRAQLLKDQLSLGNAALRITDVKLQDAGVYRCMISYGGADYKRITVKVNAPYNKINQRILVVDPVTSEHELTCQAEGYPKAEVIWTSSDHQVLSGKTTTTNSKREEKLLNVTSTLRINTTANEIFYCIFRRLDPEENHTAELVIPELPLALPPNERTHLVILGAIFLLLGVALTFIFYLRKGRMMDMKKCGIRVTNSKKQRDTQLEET
T1 sequence (Q9NZQ7 other isoform, or with tags, fused parts or gaps): as the sequence (Q9NZQ7 19-238) above, with A33T, A34S, S62N, R68Q, Q82R, F173L, T185A, T192I, H215L counted along it

Binder | EC50 (monkey PD-L1 (ECD)-his) [pM] | EC50 (human PD-L1 (ECD)-his) [pM] | IC50 (read off the curve) [1] [µg/mL] | binding result (mouse PD-L1(ECD)-his) | EC50 (read off the curve) [2] [µg/mL] | EC50 (read off the curve) [3] [µg/mL] | binding result [4]
B1 | 172 | 45.6 | ~0.2 | no binding (tested: starting at 40 µg/ml) | ~0.1 | ~0.1 | no binding (tested: LOG Con. about 4.6 (about 40000 ng/ml))
B2 | 2050 | 348 | ~0.03 | no binding (tested: starting at 40 µg/ml) | ~0.04 | ~0.05 | no binding (tested: LOG Con. about 4.6 (about 40000 ng/ml))
